Consider four molecules from PMC5374410, “Identification of a Potent Allosteric Inhibitor of Human Protein Kinase CK2 by Bacterial Surface Display Library Screening” (Pharmaceuticals, 2017).

As usually defined, the Kd is a measure of binding affinity in units of concentration. Lower therefore signals a tighter complex.

For assay [1], the target named is CK2α-pAzF coupled to DBCO-Sulfo-Cy5 (human) (UniProt P68400). Nature of the assay: MST; B2 titrated (7.6 nM to 125 or 250 µM) to 100 nM fluorophore-labelled CK2α-DBCO-Sulfo-Cy5 or CK2β^1-193-Flu; 50 mM Tris/HCl pH 7.5, 25 mM NaCl, 20 mM MgCl2, Tween-20, DMSO; 37 °C, MST power 60%; Monolith NT.115; three independent measurements.
Assay [2] has as its target recombinant human protein kinase CK2 holoenzyme coupled to fluorescein isothiocyanate (FITC) (human) (UniProt P68400).

Chain of recombinant human protein kinase CK2 holoenzyme coupled to fluorescein isothiocyanate (FITC) (human) (P68400 whole entry, chain 1 of 2): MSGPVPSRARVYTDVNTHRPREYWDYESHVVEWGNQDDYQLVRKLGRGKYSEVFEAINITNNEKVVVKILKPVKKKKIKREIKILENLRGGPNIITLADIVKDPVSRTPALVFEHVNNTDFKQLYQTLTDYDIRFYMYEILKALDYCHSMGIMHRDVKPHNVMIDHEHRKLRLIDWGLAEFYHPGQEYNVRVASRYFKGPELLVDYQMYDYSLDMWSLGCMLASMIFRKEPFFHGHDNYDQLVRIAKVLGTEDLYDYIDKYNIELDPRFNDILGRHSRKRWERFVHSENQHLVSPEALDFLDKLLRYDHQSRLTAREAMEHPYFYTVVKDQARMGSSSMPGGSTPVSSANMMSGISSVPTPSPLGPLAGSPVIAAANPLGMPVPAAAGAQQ
Chain of recombinant human protein kinase CK2 holoenzyme coupled to fluorescein isothiocyanate (FITC) (human) (P67870 whole entry, chain 2 of 2, further chain): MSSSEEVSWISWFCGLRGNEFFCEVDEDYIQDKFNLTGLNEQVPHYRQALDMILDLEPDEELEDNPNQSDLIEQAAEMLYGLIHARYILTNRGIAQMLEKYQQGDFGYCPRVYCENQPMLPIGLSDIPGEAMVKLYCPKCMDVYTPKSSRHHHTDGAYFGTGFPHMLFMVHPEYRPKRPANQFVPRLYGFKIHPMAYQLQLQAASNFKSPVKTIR

With DCRGLIVMIKLH [peptide B2 (free synthetic peptide)], in assay [1], the equilibrium dissociation constant (Kd) is 2160 nM.
Consider PCPAPRAPKLSI [peptide B4 (free synthetic peptide)], for which the percent inhibition of (unlabelled) CK2 holoenzyme at 10 µM peptide, CE assay in assay [2] was found to be 29%.
With KHTKGPTAYCPL [peptide B1 (free synthetic peptide)], in assay [2], the percent inhibition of (unlabelled) CK2 holoenzyme at 10 µM peptide, CE assay was less than 5%.
The same measure, in the same setting: the result for YRKPHWFIHTRI [peptide B3 (free synthetic peptide)] reads less than 5%.
